Results reported in the DeepSol protein solubility set.

Experiment: soluble on expression in E. coli; label from the status in PepcDB or PDB records

| Sequence | soluble on expression in E. coli |
| --- | --- |
| MARKAESSNRLDDAARAGWLYYVAGRTQDEIASVMGISRQSAQRLVSLAMAERLIKVRLDHPIAACLEMAARLKEKYDLKHVDVVPSDPGSDSTTVGIAEAGAAEIERWLKSAEPVVLAIGTGRTLKATIDQLPSMECPQHRIVSLTGNIRLDGSAAYYNVIFSMADTIKARHFPMPLPVLVSSPEEREVLHKQSLVQIALELGAEADAAFVGVGELGPDAPLCEDGFLARDEMARLMAAGAAGEICGWMFDHEGVLLPDSINERVASVPLPPRDRASVIGIAKGRRKHEALRAALKGRIINGLVTDEATADYLLRV | not soluble |
| MSLSHTLKSKTLQELDIEEIKETNPLLKLVQGQRIVQVPELVLESGVVINNFPIAYKTWGTLNEAGDNVLVICHALTGSADVADWWGPLLGNDLAFDPSRFFIICLNSMGSPYGSFSPLTINEETGVRYGPEFPLCTVRDDVRAHRIVLDSLGVKSIACVIGGSMGGMLSLEWAAMYGKEYVKNMVALATSARHSAWCISWSEAQRQSIYSDPNYLDGYYPVEEQPVAGLSAARMSALLTYRTRNSFENKFSRRSPSIAQQQKAQREETRKPSTVSEHSLQIHNDGYKTKASTAIAGISGQKGQSVVSTASSSDSLNSSTSMTSVSSVTGEVKDIKPAQTYFSAQSYLRYQGTKFINRFDANCYIAITRKLDTHDLARDRVDDITEVLSTIQQPSLIIGIQSDGLFTYSEQEFLAEHIPKSQLEKIESPEGHDAFLLEFKLINKLIVQFLKTNCKAITDAAPRAWGGDVGNDETKTSVFGEAEEVTNWEGHHHHHH | soluble |
| MGSDKIHHHHHHDSKQSQDLIVKTAQAVSASGIKTTEFPFIAQPFRTSELSFRVGGPIDRLDVYAGNHYKQGSIIAEIDPRDFHIRKERAEAIYHQAKAEFERIEKLYEKNNVSASTYEKTKADYTTAKTAFDTASNELGDTRLTAPFDGYVGEVYIEKYQDVKPAQPVISFIDINRLKIEIYVTQNIAFASHPTDSVRIYFDAQPDKYYKAQIVEVSKGTTRNNLSYLLTAVLPNKEGKLLAGMSGKAIFDAPGTTDLTGVSIPQTALCYRPSEGEYVWVIDTNTRQVNRRTVKKGNLLPGGYVTITEGLRASETVATSGLRFLSDGMKVEISTKTNSL | not soluble |
| MNTKYNKEFLLYLAGFVDGDGSIIAQIEPNQSYKFKHRLKLTFKVTQKTQRRWFLDKLVDEIGVGYVSDSGSVSNYILSEIKPLHNFLTQLQPFLKLKQKQANLVLKIIEQLPSAKESPDKFLEVCTWVDQIAALNDSKTRKTTSETVRAVLD | soluble |
| MGSDKIHHHHHHAERKNALKVDNGHYYKWKEGNIFYTKTGTGKPILLIHDTDSGASGEEWAKVAKKLAKNNTIYTIDLLGCGRSDKPSIQYTSYMYVQIITAFVDDVIGKPVNVAATNLSTAPVIMANALSKDLFNKIILINPVSLQQLKCIPDKSTKFKQNIINLPIVGTFIYNKLMSPIKVDLLFRNKFISRSQLISDNMKDAYYESAHKGQSRGKYLYSSILSNYINTNIAPALKNLDKDVSIIASTGIKNNMDVINNYHKLNSKCDIIHIANAKLYPQLELPEKTASIIKKIVTN | not soluble |
| MRFEYDLLIVAASPLALDIAYRCAPLGRIGLVIPPPDGQWQWQWQRWWLSQFPPRTLDAQHWQHFQAHLSHGQRRYAPAVLELVGVDVITGVGEFVWRPRCHFQVGGDRLYARGYLLLDAPAAMDFQDMDALSRIELACWHYWSGKAPNADAQGLPVVTTEDAWFNDRLHAALKALGLAIPGSGKRKAPDFSPLHLHPLQRDAQGWLRLNRYGRTSHPQIYACGGWQRGYHLPSLTYFEAFAIARQILQRRPIPLDYRSQPWWIALPIPMARVGWNGRQAQQSLREPIQLWEIQQWSPEGQSLGQVVINRQGRLLGATLIGRAAIASSRIFGRCLDENAFAAITYAGWELDCQRQRSPKARRLPKSGSGLDSPLPLEHHHHHH | soluble |
| MLGLPPELGLRTYSARLLGSNPKLVLHGGGNTSVKLNINDLFGNPVQVMCIKGSGQDLATITASGHPAVRLAPLQQLKVLDHLSDEDMVNILRTNLLDCRAPTPSVEALLHAFVDRPVIDHTHAVAAMVIADQPDGDRLCRYIYGERVLWIPYVMSGFALSLAVERAFRAYPDAEGMLLGKHGLCTFGESAKASYERMITFVTLAENFIESRRAIYSPLEHHHHHH | not soluble |
| MAHHHHHHMRVTHHNNNNERSADRPPPSPHPHSQYYRQRYSLFRKTHRHAALTCSTRSSSSSPAVQQLRVIHFFHSLRHATATQYSHTCSMRCILFSSLYLWRHRKVLQPAASWCWKKYGAATVRVSVWLYSRFNSSSTNGLAAAIPAGSFSSSPQNRGRLTGPSNGVTPCPMRSCAPPSHVPLRSRRRTQHPHAIAGKIGPST | soluble |
| MPGEFAKFPEQSAGSHQFRNPLDELTGSNTITNLTAHDFDYFTQSEKNSNLYTSENTSNSNRLNLNQNIPVGTLIDGFELINEASGSGFLDDQLVDVSDYSRDRTTKLDRNRNSPELIVALLQRKVQGIRFSSNYGREEEPCVIEIPPGTMVREMADDDWKMSELKEWFTKSRASSHLRDGLAMPMEELDCTPLICAMITRSDVMRINQDQAIHLLAVSVEKRIEVYQNFEWFNFILNLKIGDSVSVEVDETMRRVPAKVSWIGERPEASGIWYNVDFDGNTSQWPSSNQSYSSSHDRLNRQFDTNWNFEMSGSSSVAPSNSRLYYSPNQMHMPMKGGGVSALYDNRRLVQYSGDEEQYRSAPKPAPRERIIPVSRQQPEIEQRNSRSMKPSEPDYNTYSTHPPRPPPSSSMNYPSMSNTHSLQPSRSKSVQTIQRNQFVRQNPAERNERVESDQLNFRIGDQCIWNNNGAEERGIIKYIGFLKGHKTLYAGVEFKNTIGAGTGVFNREQLFLAKDGHAGFVELSSLESPSSSISSTSTSSSQHRRRLSSSRSQQMPAASGTSISVPVNGRHNVNGKQASIESLSDPPPPPYAPPSPPRASSAAAAHQQPPPLPPKPLARVEDFLIDSYDIGSHVVVRHLGAQRTGVVRWLGEEIDDEGDRIVRSAIVQLDEDVPTAWRRSHDASSYTGSPVVGGVLVPIQSLKHNHSGSSSNGASVVQTSTYPTSQTYNNISRRTEDFGSMDSGVEKQKCGIAKDMQQLVGRQKGIQGYCNSCYLDATLYAMFVQTTCFDFLLEKSIKGSETAQQFQKILAHEIVFPLRKVHYVRADHVMKLRKLLAELMPHVTGLTNEEKDPEEILGFIFSKVFHAEPFIKLIGQNHAKDSQYLVPIVVDDWLGGAATSQHLLERHMRSAQVTFAKAPPVLIMQLPRYGQQKVFDKILPLETIDITPFVAGAVPACSKCQACSEVYCPTCFLTRRVFYSEVIFCRKCFHHTHLLPEIEDHKSRDLYPPGKPQKKPHSHKMVLSAVLCIETSHYVAYVRTSSNQWVFFDSMADREGLSDGFNVPVVRECGNMSDWLSLQGWNRLKDADECGQIKVWELNKNISPNDRKLEIAMFGKQSSLDPLVGRLLSDSYICFYEDASPTSSSSSSSTIISSIKNMMN | not soluble |
| MQDELFETEKIPPKNTKNTKNAPKKSFEEHVHSLERAIDRLNDPNLSLKDGMDLYKTAMQELFLAQKLLENAYLEHEKLQTPDQKA | not soluble |
| MVWSAFLHFYQIGNSGSNAYYTAAAKSMAASWKAFFFAALDPAGFITVDKPPVALWLQALSVKVFGVSDFSVLLPEALAADCIRGRAVWFACAAGVLVVDARVGRDKQHDSVCRTGFASGRSGHAGCWDAGGARWALAGRAKHRAAEDGNRLRDNSSLAALVVYLEQHAGKAKYLAATIRATEAAEMMLHTDRAVMAMGGFGGTDPVLTPEKLEQMAQNGEVKYFLLSGEDRGNNELVQWIQTHCKEVPSSQWGGGQSAAIGGMGRGGMTLYVYNG | not soluble |
| MNFGKSSWRTYEQGIQREWLLTNGIGGFASSTIIGSNTRRYHGLLVAALKPPVSRHLILSKIDECVTVDNESFNLFSYEVPGFIMHGYHHLERFEYDMLPKYIYRVKDVYVEKEICMVYGENTVVVVYHVINGTGRTNLRLTPLVNFRDYHFNSGRAYMSFERKFEKDVLTVRPSCYDIDIKLYSTDGKFTELDDTWFYNMDYAVERERGLASTEDHYIPGYYDIEIKPLEEKYITFVATVEKNVNHRDGLKIIEKEKKRLKKLASKAGYKDELAKKLVLAADKFIVHRESTNAKTVIAGYPWFTDWGRDTMISLAGLTLATRRFEDAKEILYTFSKYVKDGLIPNMFPDAGHEPPYNTVDAALWYFEAVNKYVNYTHDYKFIKENIYSGLKQIIEYYSKGTHFNIKADEDYLISAGDEHTQLTWMDAKVGDWVVTPRHGKAVEINALWYNALKIMSQLSKHFKEDAGLYDEMAEKVKKSFEEKFWNEEKKCLYDCLTPNYKDDKVRPNQILAVSLSYPVIEGEKAKSVVDIVFKELYTAYGLRSLSPKEKEYVGVYMGDQYRRDGAYHQGTVWTWPLGHFITAYLRVNNYSPEARKMALRFIEPFKDHLQDACLGSVSEIFDGNEPLIPRGCFAQAWSVAEILRAYVEDVMQLVQLKH | soluble |
| MGSDKIHHHHHHMSINFDLNDLQAFRAVVENGSFRKAAESVRITQPALSRRIEKLESALNVKLFERTTRKVSLTTVGRAFLPQVERILDDLDIALMTIGEVGSTRMGSVTIACVPSAAYYFMPQVISAFREDYPKIRVKVLDASANEVNSAVALGEADFGVSFSGNLAPEVDFELLLQERYVMACRRDHSLAIRESVSWEEMYSHDYIALDITSGNRLVLDQALARSRPHKESICETRHVTTMIGLVEAGLGVAAVPSIAMPMTAHPFLVSVPLVEPEVIRNVGLIKRRGRTLTPAALELEQLVRKMPFRSAGN | not soluble |
| MGSDKIHHHHHHMALVKCQSLNEIPMTATNHMDTSVQHVDIAIVGGAMAGATLALALARLSLSAARPLSIALIEAHLPDKQHPGFDARSIAIAHGSIFELSRLGLWPKLAHLGTAIENIHVSDRGHFGMTELNAAQFHLDALGQVVELERVGQVLFNELNKSEVKLYCPAKLAQVEPAVEGHTLVLDTGKRLKAKLVVAADGLQSKVRSSFDLPVTQVAFEQTAIIANIQTDKPHQHLAYERFTQTGPLALLPMADSQGKPRLSLVWALDDARAKQMQTAPKAEFLAALQQAFGYRAGTFIDVSARHAYPLNLSYMPRPIHHRCVFIGNAAQTLHPIAGQGFNLGLRDVVSLLEVLKTALDQGDDIGSAAVTHAYLNAREHDRNSTIRNIEFLVRGFSNQYWPMALGRNLGLRLLSWFPPLKTPVAQKAMGWK | not soluble |
| MSTDPTPPQLTRRTAKVSIDNQTGSHFKFQVTHKYTGWDADKSDVVMFQPDEVKEIFKSVAYNTGFLTTGVDNWLVDGTMVQERTEVDNKGHQIGKKSYIEHAKFISDSRSWKQHMLTAEDDGKTTTIRVFPTEIHFISPSGESTTTFTKY | not soluble |
| TYKKPSDAELKRTLTEEQYQVTQNSATEYAFSHEYDHLFKPGIYVDVVSGEPLFSSADKYDSGSGWPSFTRPIDAKSVTEHDDFSYNMRRTEVRSHAADSHLGHVFPDGPRDKGGLRYSINGASLKFIPLEQMDAAGYGALKSKVK | soluble |
| MAQPIVVAALYKFVTLEDYVNLREPLLQAMLDNGIKGTLLIAEEGINGTVSGSREGIDGLLAWLKNDPRMVDIDHKESYCDEQPFYRTKVKLKKEIVTLGVPGVDPNKKVGTYVEPQDWNALISDPEVLLIDTRNDYEVSIGTFEGAIDPKTTSFREFPDYIKAHFDPSKHKKVAMFCTGGIRCEKASSYMLSEGFDEVFHLKGGILKYLEEVPQQESKWQGDCFVFDNRVTVRHDLSEGDYDQCHACRTPVSVEDRASEHYVPGISCPHCWDKLSEKTRRSAIDRQKQIELAKARNMPHPIGYNYKQSSSEALEHHHHHH | not soluble |
| MKEIKVNELTDNLFETISKEWMLVTAGTKDKFNTMTANWGGAGFLWNRPVAFIFIRPERYTFDFIEQNDYLTLSFLGEEHKEIHKICGSKSGRDMDKVKATGLSPLFTENGSITFEQARLTFECKKLYADLIKPGNFIDKSITDRWYGESHGGFHKMYVVEIVNVLSR | soluble |
